Measurements: the RNAGym collection of RNA variant scans (doi:10.7554/elife.90254)

B1: OR4K15 (parent)
chain: GUUAACGGUCAUAGGCCAUGGAAACUAGGAGCACCAUUUCGCUGCCAGUGAAGAAAUGAACAAAGAAAAUCUGGGCCAGGCAGGCAUCAAAAGAAAUAGUCUUGCGCUCAACCAGAAAGUCUGUAAUCAUUUUAAGGGUA

Variants of: B1
Assay: self-cleavage, relative activity (ratio to wild type); higher = more cleavage; in vitro, sequencing; the parent is a self-cleaving ribozyme

Q: For GUUAACGGUCAUAGGCCAUGGAAACUAGGAGCACCAUUUCGCUGCCAGUGAAGAAAUGAACAAAGAAAAUCUGGGCCAGGCAGGCAUCAAAAGAAUUAGUCUUGCGCUCAACCAGAAAGUCUGUAAUCGUUUUAAGGGUA [A96U A129G], which self-cleavage is on record?
A: Its self-cleavage is 1.36.

Q: For GUUAACGGUCAUAGGCCAUGGAAACUAGGAGCACCAUUUCGCUGCCAGUGAAGAAAUGAACAAAGAAAAUCUGGGCCAGGCAGGCAUCAAAAGAAGUAGUCUUGCGCUCAACCAGAAAGUCUGUAAUCAUUUUAAAGGUA [A96G G136A], which self-cleavage is on record?
A: Its self-cleavage is 2.06.

Q: Which self-cleavage does the source give for GUUAACGGUCAUAGGCCAUGGAAACUAGGAGCACCAUUUCGCUGCCAGUGAAGAAAUGAACAAAGAAAAUCUGGGCCAGGCAGGCAUCAAAAGAAGUAGUCUUGCGCUCAACCAGAAAGUCUGUAAUCAUUGUAAGGGUA [A96G U132G] here?
A: Its self-cleavage is 1.85.

Q: Which self-cleavage does the source give for GUUAACGGUCAUAGGCCAUGGAAACUAGGAGCACCAUUUCGCUGCCAGUGAAGAAAUGAACAAAGAAAAUCUGGGCCAGGCAGGCAUCAAAAGAAGUAGUCUUGCGCUCAACCAGAAAGUCUGUAAUCAUUCUAAGGGUA [A96G U132C] here?
A: The self-cleavage was 1.21.

Q: Which self-cleavage does the source give for GUUAACGGUCAUAGGCCAUGGAAACUAGGAGCACCAUUUCGCUGCCAGUGAAGAAAUGAACAAAGAAAAUCUGGGCCAGGCAGGCAUCAAAAGAAGUAGUCUUGCUCUCAACCAGAAAGUCUGUAAUCAUUUUAAGGGUA [A96G G106U] here?
A: Its self-cleavage is 0.01.

Q: For GUUAACGGUCAUAGGCCAUGGAAACUAGGAGCACCAUUUCGCUGCCAGUGAAGAAAUGAACAAAGAAAAUCUGGGCCAGGCAGGCAUCAAAAGAAUUAGUCUUGCGCUCAACCAGAAAGUCUGUAGUCAUUUUAAGGGUA [A96U A126G], which self-cleavage is on record?
A: Its self-cleavage is 1.58.

Q: For GUUAACGGUCAUAGGCCAUGGAAACUAGGAGCACCAUUUCGCUGCCAGUGAAGAAAUGAACAAAGAAAAUCUGGGCCAGGCAGGCAUCAAAAGAAGUAGUCUUGCGCGCAACCAGAAAGUCUGUAAUCAUUUUAAGGGUA [A96G U108G], which self-cleavage is on record?
A: Its self-cleavage is 0.03.

Q: Which self-cleavage does the source give for GUUAACGGUCAUAGGCCAUGGAAACUAGGAGCACCAUUUCGCUGCCAGUGAAGAAAUGAACAAAGAAAAUCUGGGCCAGGCAGGCAUCAAAAGAAGUAGUCUCGCGCUCAACCAGAAAGUCUGUAAUCAUUUUAAGGGUA [A96G U103C] here?
A: Its self-cleavage is 1.27.

Q: Which self-cleavage does the source give for GUUAACGGUCAUAGGCCAUGGAAACUAGGAGCACCAUUUCGCUGCCAGUGAAGAAAUGAACAAAGAAAAUCUGGGCCAGGCAGGCAUCAAAAGAAUUAGUCUUGCACUCAACCAGAAAGUCUGUAAUCAUUUUAAGGGUA [A96U G106A] here?
A: Its self-cleavage is 0.01.

Q: With GUUAACGGUCAUAGGCCAUGGAAACUAGGAGCACCAUUUCGCUGCCAGUGAAGAAAUGAACAAAGAAAAUCUGGGCCAGGCAGGCAUCAAAAGAAGUAGUCUUGCGCUCAACCAGAAAGUCUGCAAUCAUUUUAAGGGUA [A96G U124C] as the variant, how does the self-cleavage read?
A: The self-cleavage was 1.22.

Q: Which self-cleavage does the source give for GUUAACGGUCAUAGGCCAUGGAAACUAGGAGCACCAUUUCGCUGCCAGUGAAGAAAUGAACAAAGAAAAUCUGGGCCAGGCAGGCAUCAAAAGAAGUAGUCUUGCGCUCAACCAGAAAGUCUGUAACCAUUUUAAGGGUA [A96G U127C] here?
A: Its self-cleavage is 0.58.

Q: Which self-cleavage does the source give for GUUAACGGUCAUAGGCCAUGGAAACUAGGAGCACCAUUUCGCUGCCAGUGAAGAAAUGAACAAAGAAAAUCUGGGCCAGGCAGGCAUCAAAAGAAGUAGUCUUGCGCUCAACCAGAAAGUCUGUAAACAUUUUAAGGGUA [A96G U127A] here?
A: The self-cleavage was 2.73.

Q: For GUUAACGGUCAUAGGCCAUGGAAACUAGGAGCACCAUUUCGCUGCCAGUGAAGAAAUGAACAAAGAAAAUCUGGGCCAGGCAGGCAUCAAAAGAAUUAGUCUUGCGCUCAACUAGAAAGUCUGUAAUCAUUUUAAGGGUA [A96U C113U], which self-cleavage is on record?
A: Its self-cleavage is 0.04.

Q: Which self-cleavage does the source give for GUUAACGGUCAUAGGCCAUGGAAACUAGGAGCACCAUUUCGCUGCCAGUGAAGAAAUGAACAAAGAAAAUCUGGGCCAGGCAGGCAUCAAAAGAAGUAGUCUUGCGCUCAACCAGAAAGUCUGUAAUCAUCUUAAGGGUA [A96G U131C] here?
A: The self-cleavage was 1.73.

Q: With GUUAACGGUCAUAGGCCAUGGAAACUAGGAGCACCAUUUCGCUGCCAGUGAAGAAAUGAACAAAGAAAAUCUGGGCCAGGCAGGCAUCAAAAGAAGAAGUCUUGCGCUCAACCAGAAAGUCUGUAAUCAUUUUAAGGGUA [A96G U97A] as the variant, how does the self-cleavage read?
A: The self-cleavage was 0.94.

Q: With GUUAACGGUCAUAGGCCAUGGAAACUAGGAGCACCAUUUCGCUGCCAGUGAAGAAAUGAACAAAGAAAAUCUGGGCCAGGCAGGCAUCAAAAGAAGCAGUCUUGCGCUCAACCAGAAAGUCUGUAAUCAUUUUAAGGGUA [A96G U97C] as the variant, how does the self-cleavage read?
A: The self-cleavage was 0.99.

Q: Which self-cleavage does the source give for GUUAACGGUCAUAGGCCAUGGAAACUAGGAGCACCAUUUCGCUGCCAGUGAAGAAAUGAACAAAGAAAAUCUGGGCCAGGCAGGCAUCAAAAGAAGUAGCCUUGCGCUCAACCAGAAAGUCUGUAAUCAUUUUAAGGGUA [A96G U100C] here?
A: Its self-cleavage is 2.42.

Q: Which self-cleavage does the source give for GUUAACGGUCAUAGGCCAUGGAAACUAGGAGCACCAUUUCGCUGCCAGUGAAGAAAUGAACAAAGAAAAUCUGGGCCAGGCAGGCAUCAAAAGAAUUAGUCUUGCGCUCAACCAGAAGGUCUGUAAUCAUUUUAAGGGUA [A96U A118G] here?
A: Its self-cleavage is 1.17.

Q: Which self-cleavage does the source give for GUUAACGGUCAUAGGCCAUGGAAACUAGGAGCACCAUUUCGCUGCCAGUGAAGAAAUGAACAAAGAAAAUCUGGGCCAGGCAGGCAUCAAAAGAAUUAGUCUUGCGCUCAACCAGAAAGUCUGUGAUCAUUUUAAGGGUA [A96U A125G] here?
A: Its self-cleavage is 0.61.

Q: With GUUAACGGUCAUAGGCCAUGGAAACUAGGAGCACCAUUUCGCUGCCAGUGAAGAAAUGAACAAAGAAAAUCUGGGCCAGGCAGGCAUCAAAAGAAGUAGUCUUGCGCUCAACCAGAAAGUCUGUAAUCAUUUUAAGGUUA [A96G G138U] as the variant, how does the self-cleavage read?
A: Its self-cleavage is 1.33.

Q: For GUUAACGGUCAUAGGCCAUGGAAACUAGGAGCACCAUUUCGCUGCCAGUGAAGAAAUGAACAAAGAAAAUCUGGGCCAGGCAGGCAUCAAAAGAAGUAGUCUUGCGCUCAACCAGAAAGUCUGUAAUCACUUUAAGGGUA [A96G U130C], which self-cleavage is on record?
A: The self-cleavage was 0.97.
